For the experiment, the target named is meditope-enabled trastuzumab Fab fragment. Briefly: SPR; meditope alone on the Fab fragment, not IgG. (SPR reads the build-up and loss of mass on a sensor chip optically.)

In general, Kd refers to the concentration at which binding is half-saturated. High values mean weaker binding, low ones tighter binding.

Chain of meditope-enabled trastuzumab Fab fragment (chain, as listed by the source limits assumed, chain 1 of 2): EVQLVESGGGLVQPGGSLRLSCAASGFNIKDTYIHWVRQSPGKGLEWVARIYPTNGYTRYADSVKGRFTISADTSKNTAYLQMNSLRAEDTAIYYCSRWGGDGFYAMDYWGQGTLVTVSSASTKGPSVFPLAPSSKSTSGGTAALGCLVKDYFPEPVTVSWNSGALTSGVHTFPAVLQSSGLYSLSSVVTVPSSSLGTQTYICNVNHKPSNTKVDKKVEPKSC
Chain of meditope-enabled trastuzumab Fab fragment (chain, as listed by the source limits assumed, chain 2 of 2): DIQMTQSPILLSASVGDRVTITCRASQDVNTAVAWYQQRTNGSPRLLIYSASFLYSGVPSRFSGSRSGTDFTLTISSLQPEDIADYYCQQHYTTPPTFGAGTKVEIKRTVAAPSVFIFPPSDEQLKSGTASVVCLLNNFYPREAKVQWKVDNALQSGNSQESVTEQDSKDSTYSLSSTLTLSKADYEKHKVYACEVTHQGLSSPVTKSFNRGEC

CQFDLSTRRLKC (modifications not checked) [cQFD meditope (cyclic …)] showed a Kd of 1000 nM.

For the origin of these results see patent publication US20140113348A1.
